Test results from article PMC10268231 (Nature, 2021).

Experiments:
Experiment in all cases: cryo-EM structure
PRIM1 = biological target: T1, PRIM1 (human, UniProt P49642 2-420)
T1 sequence: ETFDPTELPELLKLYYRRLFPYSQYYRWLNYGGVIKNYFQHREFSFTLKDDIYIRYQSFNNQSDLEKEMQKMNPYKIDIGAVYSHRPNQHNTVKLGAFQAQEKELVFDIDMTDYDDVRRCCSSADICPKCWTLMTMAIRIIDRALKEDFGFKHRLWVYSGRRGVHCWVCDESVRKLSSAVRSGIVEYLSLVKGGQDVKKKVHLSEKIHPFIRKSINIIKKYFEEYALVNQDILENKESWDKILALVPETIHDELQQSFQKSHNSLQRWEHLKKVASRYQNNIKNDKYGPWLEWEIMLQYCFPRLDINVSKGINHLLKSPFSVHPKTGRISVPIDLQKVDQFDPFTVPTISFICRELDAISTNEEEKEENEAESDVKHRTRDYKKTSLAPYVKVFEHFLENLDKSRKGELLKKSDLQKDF

POLA2 = biological target: T2, POLA2 (human, UniProt Q14181-1 1-598)
T2 sequence (looked up): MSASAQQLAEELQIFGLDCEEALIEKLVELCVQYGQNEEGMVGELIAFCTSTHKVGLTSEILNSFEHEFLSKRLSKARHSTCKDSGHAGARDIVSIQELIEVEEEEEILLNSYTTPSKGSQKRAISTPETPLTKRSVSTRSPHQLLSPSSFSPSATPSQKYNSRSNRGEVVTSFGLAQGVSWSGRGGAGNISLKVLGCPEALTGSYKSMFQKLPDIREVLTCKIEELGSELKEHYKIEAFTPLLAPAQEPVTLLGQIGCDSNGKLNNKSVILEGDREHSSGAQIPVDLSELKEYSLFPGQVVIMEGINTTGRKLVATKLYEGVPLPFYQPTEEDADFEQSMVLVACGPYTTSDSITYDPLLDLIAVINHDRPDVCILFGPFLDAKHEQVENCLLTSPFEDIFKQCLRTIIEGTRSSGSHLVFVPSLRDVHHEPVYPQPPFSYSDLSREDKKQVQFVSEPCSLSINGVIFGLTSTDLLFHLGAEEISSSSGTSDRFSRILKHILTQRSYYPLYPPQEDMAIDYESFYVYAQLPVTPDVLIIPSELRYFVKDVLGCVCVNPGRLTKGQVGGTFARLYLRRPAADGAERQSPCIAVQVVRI

STN1 = biological target: T3, STN1 (human, UniProt Q9H668 2-368)
T3 sequence: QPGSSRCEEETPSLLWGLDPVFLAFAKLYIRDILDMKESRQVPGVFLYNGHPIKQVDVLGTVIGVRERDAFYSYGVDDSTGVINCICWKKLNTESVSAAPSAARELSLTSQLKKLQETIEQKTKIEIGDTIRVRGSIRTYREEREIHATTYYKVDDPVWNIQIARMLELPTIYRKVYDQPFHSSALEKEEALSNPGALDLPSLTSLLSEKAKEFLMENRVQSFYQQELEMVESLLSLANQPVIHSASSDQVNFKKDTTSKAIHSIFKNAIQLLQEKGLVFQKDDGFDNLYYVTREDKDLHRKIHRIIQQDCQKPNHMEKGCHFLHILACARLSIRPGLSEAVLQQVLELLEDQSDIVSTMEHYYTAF

PRIM2 = biological target: T4, PRIM2 (human, UniProt P49643-1 1-509)
T4 sequence (looked up): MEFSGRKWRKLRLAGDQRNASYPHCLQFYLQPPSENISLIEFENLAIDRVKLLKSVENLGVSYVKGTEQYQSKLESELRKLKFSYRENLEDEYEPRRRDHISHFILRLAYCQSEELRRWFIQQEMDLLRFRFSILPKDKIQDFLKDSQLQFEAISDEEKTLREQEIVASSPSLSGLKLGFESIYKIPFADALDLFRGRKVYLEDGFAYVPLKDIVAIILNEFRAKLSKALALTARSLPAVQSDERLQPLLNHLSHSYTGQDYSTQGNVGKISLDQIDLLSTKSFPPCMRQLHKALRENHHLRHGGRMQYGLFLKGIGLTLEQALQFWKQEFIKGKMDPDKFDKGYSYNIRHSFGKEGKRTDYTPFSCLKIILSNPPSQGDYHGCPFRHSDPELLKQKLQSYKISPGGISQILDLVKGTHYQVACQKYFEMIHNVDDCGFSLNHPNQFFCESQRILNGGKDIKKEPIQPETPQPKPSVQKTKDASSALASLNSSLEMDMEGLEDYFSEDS

Measured: binding result

B1: TEN1 (natural protein, human)
chain: LPKPGTYYLPWEVSAGQVPDGSTLRTFGRLCLYDMIQSRVTLMAQHGSDQHQVLVCTKLVEPFHAQVGSLYIVLGELQHQQDRGSVVKARVLTCVEGMNLPLLEQAIREQRLYKQERGGSQ
binds: all assays above
